*1 amine or outer side, *2 acyl side, *3 side chain or, on linkers, in order; H or OH if unused. Where no end group is shown, it is not given here. Side-chain parts run from the residue outwards. [ ]: non-standard residue; d: D form. The star is where a group is joined. γGlu = O=C(O)[C@H](CCC(=O)[*:2])N[*:1]; Palmitoyl = CCCCCCCCCCCCCCCC(=O)*; Aib = CC(C)(N)C(=O)O; GABA = NCCCC(=O)O
Assays:
[1] = target: human glucagon receptor (human, UniProt P47871 26-477); assay: cell-based or functional assay
human glucagon receptor, sequence (P47871 26-477): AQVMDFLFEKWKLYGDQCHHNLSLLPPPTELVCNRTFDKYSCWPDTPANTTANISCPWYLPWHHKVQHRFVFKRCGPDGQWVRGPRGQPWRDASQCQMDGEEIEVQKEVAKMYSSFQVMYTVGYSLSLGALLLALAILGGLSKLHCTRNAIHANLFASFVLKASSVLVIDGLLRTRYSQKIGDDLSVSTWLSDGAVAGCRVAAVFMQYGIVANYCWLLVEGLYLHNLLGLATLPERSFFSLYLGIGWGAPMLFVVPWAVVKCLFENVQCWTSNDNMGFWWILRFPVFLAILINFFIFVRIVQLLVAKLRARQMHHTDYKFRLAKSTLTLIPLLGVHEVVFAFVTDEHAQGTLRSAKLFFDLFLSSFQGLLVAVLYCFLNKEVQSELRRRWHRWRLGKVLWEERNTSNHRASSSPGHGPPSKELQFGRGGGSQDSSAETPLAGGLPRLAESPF

[2] = target: human GLP-1 receptor (human, UniProt P43220 24-463); assay: cell-based or functional assay

Binder	EC50 hGlucagonR (cAMP formation) [1]	EC50 hGLP-1R (cAMP formation) [2]
HSQGTFTSDLSKQMEEERAKDFIEWLKNGGPSSGAPPPS-NH2 [SEQ ID NO: (17)]	3.36 nM	0.0241 nM
H[dS]QGTFTSDLSKQMESRRAQDFIEWLKSGGPSSGAPPPK([GABA-Palmitoyl])-NH2 (N-terminus assumed; SMILES CCCCCCCCCCCCCCCC(=O)NCCCC(=O)NCCCC[C@H](NC(=O)[C@@H]1CCCN1C(=O)[C@@H]1CCCN1C(=O)[C@@H]1CCCN1C(=O)[C@H](C)NC(=O)CNC(=O)[C@H](CO)NC(=O)[C@H](CO)NC(=O)[C@@H]1CCCN1C(=O)CNC(=O)CNC(=O)[C@H](CO)NC(=O)[C@H](CCCCN)NC(=O)[C@H](CC(C)C)NC(=O)[C@H](Cc1c[nH]c2ccccc12)NC(=O)[C@H](CCC(=O)O)NC(=O)[C@@H](NC(=O)[C@H](Cc1ccccc1)NC(=O)[C@H](CC(=O)O)NC(=O)[C@H](CCC(N)=O)NC(=O)[C@H](C)NC(=O)[C@H](CCCNC(=N)N)NC(=O)[C@H](CCCNC(=N)N)NC(=O)[C@H](CO)NC(=O)[C@H](CCC(=O)O)NC(=O)[C@H](CCSC)NC(=O)[C@H](CCC(N)=O)NC(=O)[C@H](CCCCN)NC(=O)[C@H](CO)NC(=O)[C@H](CC(C)C)NC(=O)[C@H](CC(=O)O)NC(=O)[C@H](CO)NC(=O)[C@@H](NC(=O)[C@H](Cc1ccccc1)NC(=O)[C@@H](NC(=O)CNC(=O)[C@H](CCC(N)=O)NC(=O)[C@@H](CO)NC(=O)[C@@H](N)Cc1c[nH]cn1)[C@@H](C)O)[C@@H](C)O)[C@@H](C)CC)C(N)=O) [SEQ ID NO: (124)]	0.0213 nM	0.0139 nM
H[dS]QGTFTSDLSKQMEEEAAKDFIEWLKAGGPSSGAPPPSK([γGlu-Palmitoyl])-NH2 (N-terminus assumed; SMILES CCCCCCCCCCCCCCCC(=O)N[C@@H](CCC(=O)NCCCC[C@H](NC(=O)[C@H](CO)NC(=O)[C@@H]1CCCN1C(=O)[C@@H]1CCCN1C(=O)[C@@H]1CCCN1C(=O)[C@H](C)NC(=O)CNC(=O)[C@H](CO)NC(=O)[C@H](CO)NC(=O)[C@@H]1CCCN1C(=O)CNC(=O)CNC(=O)[C@H](C)NC(=O)[C@H](CCCCN)NC(=O)[C@H](CC(C)C)NC(=O)[C@H](Cc1c[nH]c2ccccc12)NC(=O)[C@H](CCC(=O)O)NC(=O)[C@@H](NC(=O)[C@H](Cc1ccccc1)NC(=O)[C@H](CC(=O)O)NC(=O)[C@H](CCCCN)NC(=O)[C@H](C)NC(=O)[C@H](C)NC(=O)[C@H](CCC(=O)O)NC(=O)[C@H](CCC(=O)O)NC(=O)[C@H](CCC(=O)O)NC(=O)[C@H](CCSC)NC(=O)[C@H](CCC(N)=O)NC(=O)[C@H](CCCCN)NC(=O)[C@H](CO)NC(=O)[C@H](CC(C)C)NC(=O)[C@H](CC(=O)O)NC(=O)[C@H](CO)NC(=O)[C@@H](NC(=O)[C@H](Cc1ccccc1)NC(=O)[C@@H](NC(=O)CNC(=O)[C@H](CCC(N)=O)NC(=O)[C@@H](CO)NC(=O)[C@@H](N)Cc1c[nH]cn1)[C@@H](C)O)[C@@H](C)O)[C@@H](C)CC)C(N)=O)C(=O)O) [SEQ ID NO: (110)]	0.323 nM	0.0029 nM
H[dS]QGTFTSDLSKQMES[Aib]AAQLFIEWLKAGGPSSGAPPPSK([γGlu-Palmitoyl])-NH2 (N-terminus assumed; SMILES CCCCCCCCCCCCCCCC(=O)N[C@@H](CCC(=O)NCCCC[C@H](NC(=O)[C@H](CO)NC(=O)[C@@H]1CCCN1C(=O)[C@@H]1CCCN1C(=O)[C@@H]1CCCN1C(=O)[C@H](C)NC(=O)CNC(=O)[C@H](CO)NC(=O)[C@H](CO)NC(=O)[C@@H]1CCCN1C(=O)CNC(=O)CNC(=O)[C@H](C)NC(=O)[C@H](CCCCN)NC(=O)[C@H](CC(C)C)NC(=O)[C@H](Cc1c[nH]c2ccccc12)NC(=O)[C@H](CCC(=O)O)NC(=O)[C@@H](NC(=O)[C@H](Cc1ccccc1)NC(=O)[C@H](CC(C)C)NC(=O)[C@H](CCC(N)=O)NC(=O)[C@H](C)NC(=O)[C@H](C)NC(=O)C(C)(C)NC(=O)[C@H](CO)NC(=O)[C@H](CCC(=O)O)NC(=O)[C@H](CCSC)NC(=O)[C@H](CCC(N)=O)NC(=O)[C@H](CCCCN)NC(=O)[C@H](CO)NC(=O)[C@H](CC(C)C)NC(=O)[C@H](CC(=O)O)NC(=O)[C@H](CO)NC(=O)[C@@H](NC(=O)[C@H](Cc1ccccc1)NC(=O)[C@@H](NC(=O)CNC(=O)[C@H](CCC(N)=O)NC(=O)[C@@H](CO)NC(=O)[C@@H](N)Cc1c[nH]cn1)[C@@H](C)O)[C@@H](C)O)[C@@H](C)CC)C(N)=O)C(=O)O) [SEQ ID NO: (112)]	0.876 nM	0.0097 nM
H[dS]QGTFTSDLSKQMES[Aib]AAQDFIEWLKAGGPSSGAPPPSK([γGlu-Palmitoyl])-NH2 (N-terminus assumed; SMILES CCCCCCCCCCCCCCCC(=O)N[C@@H](CCC(=O)NCCCC[C@H](NC(=O)[C@H](CO)NC(=O)[C@@H]1CCCN1C(=O)[C@@H]1CCCN1C(=O)[C@@H]1CCCN1C(=O)[C@H](C)NC(=O)CNC(=O)[C@H](CO)NC(=O)[C@H](CO)NC(=O)[C@@H]1CCCN1C(=O)CNC(=O)CNC(=O)[C@H](C)NC(=O)[C@H](CCCCN)NC(=O)[C@H](CC(C)C)NC(=O)[C@H](Cc1c[nH]c2ccccc12)NC(=O)[C@H](CCC(=O)O)NC(=O)[C@@H](NC(=O)[C@H](Cc1ccccc1)NC(=O)[C@H](CC(=O)O)NC(=O)[C@H](CCC(N)=O)NC(=O)[C@H](C)NC(=O)[C@H](C)NC(=O)C(C)(C)NC(=O)[C@H](CO)NC(=O)[C@H](CCC(=O)O)NC(=O)[C@H](CCSC)NC(=O)[C@H](CCC(N)=O)NC(=O)[C@H](CCCCN)NC(=O)[C@H](CO)NC(=O)[C@H](CC(C)C)NC(=O)[C@H](CC(=O)O)NC(=O)[C@H](CO)NC(=O)[C@@H](NC(=O)[C@H](Cc1ccccc1)NC(=O)[C@@H](NC(=O)CNC(=O)[C@H](CCC(N)=O)NC(=O)[C@@H](CO)NC(=O)[C@@H](N)Cc1c[nH]cn1)[C@@H](C)O)[C@@H](C)O)[C@@H](C)CC)C(N)=O)C(=O)O) [SEQ ID NO: (111)]	0.206 nM	0.0041 nM
H[dS]QGTFTSDLSKQMESEAAQLFIEWLKAGGPSSGAPPPSK([γGlu-Palmitoyl])-NH2 (N-terminus assumed; SMILES CCCCCCCCCCCCCCCC(=O)N[C@@H](CCC(=O)NCCCC[C@H](NC(=O)[C@H](CO)NC(=O)[C@@H]1CCCN1C(=O)[C@@H]1CCCN1C(=O)[C@@H]1CCCN1C(=O)[C@H](C)NC(=O)CNC(=O)[C@H](CO)NC(=O)[C@H](CO)NC(=O)[C@@H]1CCCN1C(=O)CNC(=O)CNC(=O)[C@H](C)NC(=O)[C@H](CCCCN)NC(=O)[C@H](CC(C)C)NC(=O)[C@H](Cc1c[nH]c2ccccc12)NC(=O)[C@H](CCC(=O)O)NC(=O)[C@@H](NC(=O)[C@H](Cc1ccccc1)NC(=O)[C@H](CC(C)C)NC(=O)[C@H](CCC(N)=O)NC(=O)[C@H](C)NC(=O)[C@H](C)NC(=O)[C@H](CCC(=O)O)NC(=O)[C@H](CO)NC(=O)[C@H](CCC(=O)O)NC(=O)[C@H](CCSC)NC(=O)[C@H](CCC(N)=O)NC(=O)[C@H](CCCCN)NC(=O)[C@H](CO)NC(=O)[C@H](CC(C)C)NC(=O)[C@H](CC(=O)O)NC(=O)[C@H](CO)NC(=O)[C@@H](NC(=O)[C@H](Cc1ccccc1)NC(=O)[C@@H](NC(=O)CNC(=O)[C@H](CCC(N)=O)NC(=O)[C@@H](CO)NC(=O)[C@@H](N)Cc1c[nH]cn1)[C@@H](C)O)[C@@H](C)O)[C@@H](C)CC)C(N)=O)C(=O)O) [SEQ ID NO: (114)]	0.295 nM	0.0031 nM
H[dS]QGTFTSDLSKQMEEEAAKLFIEWLKAGGPSSGAPPPSK([γGlu-Palmitoyl])-NH2 (N-terminus assumed; SMILES CCCCCCCCCCCCCCCC(=O)N[C@@H](CCC(=O)NCCCC[C@H](NC(=O)[C@H](CO)NC(=O)[C@@H]1CCCN1C(=O)[C@@H]1CCCN1C(=O)[C@@H]1CCCN1C(=O)[C@H](C)NC(=O)CNC(=O)[C@H](CO)NC(=O)[C@H](CO)NC(=O)[C@@H]1CCCN1C(=O)CNC(=O)CNC(=O)[C@H](C)NC(=O)[C@H](CCCCN)NC(=O)[C@H](CC(C)C)NC(=O)[C@H](Cc1c[nH]c2ccccc12)NC(=O)[C@H](CCC(=O)O)NC(=O)[C@@H](NC(=O)[C@H](Cc1ccccc1)NC(=O)[C@H](CC(C)C)NC(=O)[C@H](CCCCN)NC(=O)[C@H](C)NC(=O)[C@H](C)NC(=O)[C@H](CCC(=O)O)NC(=O)[C@H](CCC(=O)O)NC(=O)[C@H](CCC(=O)O)NC(=O)[C@H](CCSC)NC(=O)[C@H](CCC(N)=O)NC(=O)[C@H](CCCCN)NC(=O)[C@H](CO)NC(=O)[C@H](CC(C)C)NC(=O)[C@H](CC(=O)O)NC(=O)[C@H](CO)NC(=O)[C@@H](NC(=O)[C@H](Cc1ccccc1)NC(=O)[C@@H](NC(=O)CNC(=O)[C@H](CCC(N)=O)NC(=O)[C@@H](CO)NC(=O)[C@@H](N)Cc1c[nH]cn1)[C@@H](C)O)[C@@H](C)O)[C@@H](C)CC)C(N)=O)C(=O)O) [SEQ ID NO: (113)]	0.311 nM	0.002 nM
H[dS]QGTFTSDLSKQMEEEAA[Aib]DFIEWLKAGGPSSGAPPPSK([γGlu-Palmitoyl])-NH2 (N-terminus assumed; SMILES CCCCCCCCCCCCCCCC(=O)N[C@@H](CCC(=O)NCCCC[C@H](NC(=O)[C@H](CO)NC(=O)[C@@H]1CCCN1C(=O)[C@@H]1CCCN1C(=O)[C@@H]1CCCN1C(=O)[C@H](C)NC(=O)CNC(=O)[C@H](CO)NC(=O)[C@H](CO)NC(=O)[C@@H]1CCCN1C(=O)CNC(=O)CNC(=O)[C@H](C)NC(=O)[C@H](CCCCN)NC(=O)[C@H](CC(C)C)NC(=O)[C@H](Cc1c[nH]c2ccccc12)NC(=O)[C@H](CCC(=O)O)NC(=O)[C@@H](NC(=O)[C@H](Cc1ccccc1)NC(=O)[C@H](CC(=O)O)NC(=O)C(C)(C)NC(=O)[C@H](C)NC(=O)[C@H](C)NC(=O)[C@H](CCC(=O)O)NC(=O)[C@H](CCC(=O)O)NC(=O)[C@H](CCC(=O)O)NC(=O)[C@H](CCSC)NC(=O)[C@H](CCC(N)=O)NC(=O)[C@H](CCCCN)NC(=O)[C@H](CO)NC(=O)[C@H](CC(C)C)NC(=O)[C@H](CC(=O)O)NC(=O)[C@H](CO)NC(=O)[C@@H](NC(=O)[C@H](Cc1ccccc1)NC(=O)[C@@H](NC(=O)CNC(=O)[C@H](CCC(N)=O)NC(=O)[C@@H](CO)NC(=O)[C@@H](N)Cc1c[nH]cn1)[C@@H](C)O)[C@@H](C)O)[C@@H](C)CC)C(N)=O)C(=O)O) [SEQ ID NO: (115)]	0.175 nM	0.0007 nM
